Experimental data taken from US20260231954A1, “PESTICIDAL ENZYMES FOR USE ON NEMATODES, INSECTS, AND MOLLUSKS” (priority 2023, published 2026).

Key:
[1] = system: soybean cyst nematode (SCN, Heterodera glycines); assay: Soybean cyst nematode reproduction on soybean after seed treatment, controlled environment (cysts per gram of root tissue or per plant); type: in vivo; details: for % Comparison to Control (figure in parentheses): change vs base control
[2] = system: Fall armyworm (Spodoptera frugiperda); assay: Diet-surface overlay (DSO) bioassay on Fall armyworm; type: in vivo
Description: (§1) Diet-surface overlay bioassays are conducted with artificial diet mixes without antibiotics in 1.5 cm^2 cell bioassay trays(s). Artificial diets are commercially available from Southland Products Inc. Diets were prepared by dispersing 0.5 mL of molten diet to each 1.5 cm^2 cell. After solidification, 0.1 mL enzyme treatments were dispersed on top of diet in each cell and the tray was gently rocked in an orbital shaker to spread the liquid uniformly over the diet surface. Trays were placed under clean airflow until the surface of each cell was uniformly dried. One or two 16-cell sections were used per treatment (the number in larvae treated was 16 or 32).
(§2) One healthy first instar larva was placed into each treatment cell, each 16-cell section was covered with a re-sealable lid and incubated at 27° C. and light-dark period of 16:8 hrs. After 7 days, and according to the species, the number of individuals in the following developmental categories was recorded.
(§3) Negative/untreated controls were treated with filtered water and positive controls were treated with lethal doses of Bacillus thuringiensis subsp. Kurstaki (Btk) spores at 1000 ppm.

[3] = system: Btk resistant Diamondback moth; assay: Diet-surface overlay (DSO) bioassay on Btk resistant Diamondback moth; type: in vivo, Plutella xylostella; details: number of individuals, n = 32, 7 days
Description: as §1, §2
Diamondback moth (Plutella xylostella): Dead Larva (lack of movement), Larva Stage I (≤50% relative size), Larva Stage II (100% relative size, full size), Early Pupa (light green color), Late Pupa (light-dark brown color), and Adult.
as §3
However, both neutral proteases reduced the number of individuals reaching adult stage.
The effect of lipase (10× enzyme rate) and free lipases were tested on a Diamondback Moth Btk resistant strain. Free Lipases from Burkholderia cepacia (Bc) and Pseudomonas fluorescens (Pf) were tested along with Lipase (SEQ ID NO: 76) and the results are shown below in Table 45.

[4] = Table 46, number of individuals, n = 32, 7 days
[5] = Table 48, chitinases, Fall armyworm, number of individuals of n = 32, DSO bioassay
[6] = Table 50, esterases, Fall armyworm, number of individuals of n = 32
[7] = Table 50, esterases, Fall armyworm, number of individuals of n = 32, DSO bioassay, dose per treatment in U/mL Diet

B1: Trypsin-like protease (SEQ ID NO: 126): Trichoderma lixii trypsin-like protease (protein, listed as Trichoderma lixii)
chain: AAITPRGSDIVGGTTAALGEFPYIVSLSTGGSHFCGGVLIDSRTVVTAGHCTIDQRASSVKVRAGTLTWASGGTQVGVSSLTLHPSYTVDSQGVPDNDVGVWHLATAIPTSSTIGYATLPASGSDPAAGTTLTVAGWGTTSENSNSLPSTLRKVSVPVVARATCDSDYDGEISNNMFCAAVAAGGKDSCSGDSGGPIIDPSGTLVGVVSWGQGCAERGFPGVYTRLGNYVSFINSNRG
modifications: H182 trypsin-like protease
B1 was tested, and the “Average cysts per g of root tissue” value ([1]; Table 11, free enzyme seed treatment 2 fl. oz. per unit of seed (ILEVO 0.15 mg active ingredient per seed), soybean P18A98X, 3 weeks after inoculation) was 18.6 cysts per g of root tissue.

B2: Pseudomonas sp. esterase free enzyme concentrate (SEQ ID NO: 248): free enzyme concentrated in an Amicon Ultra 4K filter unit, 4× volumetric concentration (protein, listed as Pseudomonas sp.)
chain: MTEPLILQPVKPADACVIWLHGLGADRYDFLPVAEALQEILLSTRFVLPQAPTRPVTINGGYAMPSWYDIKAMSPARAIDRDELEASADRIIELIEEQRSSGIDASRIFLAGFSQGGAVVYHTAFLKWQGPLGGVLALSTYAPTFSDELELSASQQRIPVLSLHGQFDNVVQNSMGRTAYEYLKAHGVTVTWQEYPMEHEVLPEEIRDIGTWLSERLR
modifications: concentrated
notes: free enzyme concentrated in an Amicon Ultra 4K filter unit, 4× volumetric concentration
For B2, the “% Comparison to Control (figure in parentheses)” value (“% Comparison to Control” for short) ([1]; Table 16) was −25% and the “Average cysts per g of root tissue” value ([1]; Table 16, free enzyme or 4x concentrate seed treatment, soybean 2830E3) was 182.1 cysts per g of root tissue.

B3: Chitinase C (SEQ ID NO: 249): Chitinase C (protein, listed as Bacillus thuringiensis)
chain: DSPKQSQKIVGYFPSWGVYGRNYQVADIDASKLTHLNYAFADICWKGKHGNPSTHPDNPNKQTWNCKESGVPLQNKEVPNGTLVLGEPWADVTKSYPGSGTTWEDCDKYARCGNFGELKRLKAKYPHLKTIISVGGWTWSNRFSDMAADEKTRKVFAESTVAFLRAYGFDGVDLDWEYPGVETIPGGSYRPEDKQNFTLLLQDVRNALNKAGAEDGKQYLLTIASGASQRYADHTELKKISQILDWINIMTYDFHGGWEATSNHNAALYKDPNDPAANTNFYVDGAIDVYTNEGVPVDKLVLGVPFYGRGWKSCGKENNGQYQPCKPGSDGKLASKGTWDDYSTGDTGVYDYGDLTANYVNKNGFVRYWNDTAKVPYLYNATTGTFISYDDNESMKYKTDYIKTKGLSGAMFWELSGDCRTSPKYSCSGPKLLDTLVKELLGGPINQKDTEPPTNVKNIIVTNKTSSSVQLSWTASTDNVGVTEYEITAGEEKWSATTNSITIKNLKPNTEYTFSVIAKDASGNKSHPTALTVKTDEANTTPPDGNGTATFSVTSNWGSGYNFSIIIKNNGTIPIKNWKLEFDYSGNLTQVWDSKISSKTNNHYVITNAGWNGEIPPGGSITIGGAGTGNPAELLNAVISEN
For B3, the “% Comparison to Control” value ([1]; Table 18) was −22% and the “Average cysts per g of root tissue” value ([1]; Table 18, free enzyme seed treatment) was 45.7 cysts per g of root tissue.

B4: Bacillus thuringiensis Lipase 1 (SEQ ID NO: 250): Bacillus thuringiensis Lipase 1 (protein, listed as Bacillus thuringiensis)
chain: YGFVSGVNDVLNPKASNLIKKTDVVAKEKKKTGTLQIVSLGDSLTRGVGDKEGIGYVGRMKEDLQKDYKQKIALTNLAVSGAKMPDLLKQIESNGAQYSIKQADVIVLTIGGNDLFPGWESLGKIDLETYRPDTETFQNEAKKIIEEIRKLNTDSPIFWLGLYNPFEDVEDLKGSSNIVVDWNASLEKLALNDKNVYITPTFDLFQNRGKDLLYSDHFHPNEVGYTYMAERLVQNVVSKLKLEQGGVK
B4 was tested, and the “% Comparison to Control” value ([1]; Table 19) was −25% and the “Average cysts per g of root tissue” value ([1]; Table 19, free enzyme seed treatment, soybean 2830E3) was 332.0 cysts per g of root tissue.

B5: Lipase: lipase of Table 46, not further identified; probably Lipase (SEQ ID NO: 76) (protein, listed as Bacillus thuringiensis)
chain: MRLMRRCVALLIVFFIMAPMISTNVRAGVVKELKTGFPDQEVFTPGEWFLGQKPANYDENKPPILFVQGRNGNADSWYGKTVYHDINDMYDYALKAGYQTVFIQLYDAAGKGSASQWDNGKLLAQKLEEIYNHFGKKVNIVAHSKGGIDTQAALVGYGANRFVGNVITLATPHHGSNLADLSYSWWAGWLASILGQKDDGTYSLQMGEMAKFRSTIDNNPAAKLNRYYTVTGTSWGPVFSALSMGGLYLSSYGSNDGLVNECSAKLPYGTHLFTDSRFDHDNIRKGSAVFARIEPYLRTANVPVPALVASSTSSNENIEQLNTTSNQSILGGELPQNQWIEQTVAVDKKAEGIVSILTASSDVEVQMISPKGKVYTNKDSVITTGEGESFFGGATIRTFKFDKMDVGEWKVKMMTKQSKDAYLVVSDYKTGAPFVLQMPTKVKANKSEYKLKKSPVAPEMKGDLSITVRVVNKEGKLVSEFNELQNVNNNTFTGALKNIKQPGVYNVTMDIKGMNKEGKSYSRTIVKSVYVEK
modifications: Lipase (Lip1 H192)
With B5 the “Dead Larva” value ([2]; Table 46, lipases, number of individuals, n = 32, 7 days) was 5, the “Larva Stage I” value [2, 4] was 2 and the “Larva Stage II” value [2, 4] was 10. For the same molecule, the “Larva Stage III” value [2, 4] was 15 and the “Larva Stage IV” value [2, 4] was 0.

B6: Chitinase (SEQ ID NO: 185): recombinant chitinase from Akanthomyces lecanii; Acidic Chitinase 1 (Chit1) (protein, listed as Akanthomyces lecanii)
chain: MAKCTSPDRKCPAPLIDAPINSFMTDGWADTDIHWEGDSWNDSGTNIYGCLKQLNILKKHNRNFKVLLSIGGWTYSSNFPAPASTPEGRDTFAKSCVELVKNLGFDGIDIDWEYPKTAEEAGHFVELLAEVRKQLDEYSARAANNYHFELSVACPAGPDNFQKLNISGMDAYLDFWNLMAYDYAGSWDKNSGHQANLYPCKDAPGCTPFSTVAAVDYYTSNGVSPDKLVLGMPLYGRAFENCDGIGQPFQGVGQGTWEQGVYDYKKLPLEGAEEHKDDDSCATYCHNAESRTLVTYDTPELAKTKADFIKERGLGGGMWWESSADKAGDDSLIQVVVSELGGPEALKQQQNCISYPETKYDNLRDGLPDN
modifications: Acidic Chitinase 1 (Chit1-H195)
With B6 the “Dead Larva” value ([3]; Table 47, chitinases, rate in mU/mL diet column) was 2, the Adult ([3]; Table 47) was 1 and the “Early Pupa” value ([3]; Table 47) was 8. For the same molecule, the “Larva Stage I” value ([3]; Table 47) was 2, the “Larva Stage II” value ([3]; Table 47) was 2 and the “Late Pupa” value ([3]; Table 47) was 17. The “Larva Stage I” value [2, 5] was 4, the “Larva Stage II” value [2, 5] was 5 and the “Larva Stage III” value [2, 5] was 8. The “Larva Stage IV” value [2, 5] was 8 and the “Dead Larva” value ([2]; Table 48, chitinases, Fall armyworm, number of individuals of n = 32, DSO bioassay, dose per treatment in mU/mL Diet) was 7.

B7: H6-pytH (SEQ ID NO: 95): recombinant six-histidine tagged esterase pytH from Sphingobium wenxiniae (protein, listed as Sphingobium wenxiniae)
chain: MTVTDIILIHGALNRGACYDAVVPLLEARGYRVHAPDLTGHTPGDGGHLSVVDMEHYTRPVADILARAEGQSILLGHSLGGASISWLAQHHPDKVAGLIYLTAVLTAPGITPETFVLPGEPNRGTPHALDLIQPVDEGRGLQADFSRLERLREVFMGDYPGEGMPPAEQFIQTQSTVPFGTPNPMEGRALEIPRLYIEALDDVVIPIAVQRQMQKEFPGPVAVVSLPASHAPYYSMPERLAEAIADFADAPAEYRQTATKAGPDRPAGADGGRADRADLP
modifications: Esterase (pytH)
B7 was tested, and the “Larva Stage I” value [2, 6] was 0, the “Larva Stage II” value [2, 6] was 0 and the “Larva Stage III” value [2, 6] was 13. For the same molecule, the “Larva Stage IV” value [2, 6] was 19 and the “Dead Larva” value [2, 7] was 0.

B8: H6-pnbA (SEQ ID NO: 94): recombinant six-histidine tagged esterase pnbA from Bacillus subtilis (protein, listed as Bacillus subtilis)
chain: MTHQIVTTQYGKVKGTTENGVHKWKGIPYAKPPVGQWRFKAPEPPEVWEDVLDATAYGSICPQPSDLLSLSYTELPRQSEDCLYVNVFAPDTPSKNLPVMVWIHGGAFYLGAGSEPLYDGSKLAAQGEVIVVTLNYRLGPFGFLHLSSFNEAYSDNLGLLDQAAALKWVRENISAFGGDPDNVTVFGESAGGMSIAALLAMPAAKGLFQKAIMESGASRTMTKEQAASTSAAFLQVLGINEGQLDKLHTVSAEDLLKAADQLRIAEKENIFQLFFQPALDPKTLPEEPEKAIAEGAASGIPLLIGTTRDEGYLFFTPDSDVHSQETLDAALEYLLGKPLAEKVADLYPRSLESQIHMMTDLLFWRPAVAYASAQSHYAPVWMYRFDWHPKKPPYNKAFHALELPFVFGNLDGLERMAKAEITDEVKQLSHTIQSAWITFAKTGNPSTEAVNWPAYHEETRETLILDSEITIENDPESEKRQKLFPSKGE
modifications: Esterase (pnbA)
In the case of B8, the “Larva Stage I” value [2, 6] is reported as 0, the “Larva Stage II” value [2, 6] is reported as 0 and the “Larva Stage III” value [2, 6] is reported as 15. For the same molecule, the “Larva Stage IV” value [2, 6] was 17 and the “Dead Larva” value [2, 7] was 0.
